Experimental data published in patent publication US5874272A, “Inosine-guanosine kinase” (Kyowa Hakko Kogyo Co., Ltd., priority 1998, dated 1999).

Assays:
[1] = Optimum pH and optimum temperature of the enzyme activity; format: biochemical, Escherichia coli; details: 30° C., 20 minutes; PIPES, HEPES, TAPS, CHES buffers 100 mM
Procedure: The activity of the inosine-guanosine kinase obtained is determined as follows. A reaction solution (hereafter referred to as reaction solution a) having a composition of 100 mM HEPES buffer (pH 7.2), 10 mM MgSO4, 50 mM KCl, 1 mM ATP and 1 mM inosine is brought into contact with the inosine-guanosine […] During the course of reaction, a part of the reaction solution is subjected to sampling intermittently. After the reaction solution is diluted to 1/20 with 0.2M NaH2 PO4 (adjusted the pH to 2.6 with H3 PO4) to stop the reaction, an amount of 5'-IMP in the stopped reaction solution is quantitatively determined by HPLC. Analysis by HPLC is made by using 0.2M NaH2 PO4 (pH 2.6) at a flow rate of 1 ml/min. as an eluting solution and Asahipak GS-320H (manufactured by Asahi Chemical Co., Ltd.) as a column. Detection of components was made by the absorbance at UV absorbance at 254 nm as an index. Quantitative determination was made by comparing absorbancy with that of the standard. […]
In the method for determination of inosine-guanosine kinase activity described above, the activity is determined by varying the temperature of 0° to 50° C. and 31° to 41° C. […]

[2] = pH, temperature and storage stability of the enzyme (residual activity); format: physicochemical, Escherichia coli
Procedure: This enzyme is treated at 4° C. for 16 hours in an aqueous solution containing 50 mM buffer (CHES; pH 10.0-9.0, TAPS; pH 8.2, HEPES; pH 8.3-7.3 or PIPES; pH 6.6) and 5 mM […] under both conditions in the absence of KCl and in the presence of 250 mM KCl. After the treatment, the activity is determined. Where treated in a pH range of 6.6 to 9.0, the treated enzyme maintains the residual activity of 90% or more than the activity of intact standard enzyme and stably keeps its activity in a pH range of 6.6 to 9.0. The addition of KCl accelerates storage stability.
A reaction solution composed of 20% glycerol, 50 mM Tris-hydrochloride buffer (pH 8), 5 mM β-mercaptoethanol and 100 mM NaCl is contacted with inosine-guanosine kinase in a concentration of about 10 μg protein/ml and treated at a temperature of 26° to 50° C. for 15 minutes to determine the residual activity at each temperature. As the result, since treatment at 40° C. or lower inactivates the enzyme by only 20% or less, the enzyme is stable up to 40° C. In contrast, the activity is rapidly lost by treatment at 50° C.
After 6 g of the -20° C.-stored cells which had been obtained in (6) was suspended in 24 ml of purification buffer [20% glycerol, 50 mM Tris-hydrochloride buffer (pH 8) and 5 mM β-mercaptoethanol], the suspension was disrupted with a homogenizer (manufactured by Brown Biotech Co., Ltd., glass bead diameter of 0.1 mm). The homogenate was centrifuged to give about 20 ml of the supernatant. Protamine sulfate was added to the supernatant in a final concentration of 0.4% followed by centrifugation. Thus high molecular nucleic acid components were removed as precipitates. The resulting supernatant was passed through Sephadex G-50 column which had been previously equilibrated with the purification buffer. The column was eluted with the purification buffer to give about 30 ml of desalted active fraction. After the fraction was passed through DEAE Sepharose column which had been previously equilibrated with the purification buffer, 60 ml of the purification buffer containing 0.1M NaCl was added thereto. Then the desired enzyme was eluted with 200 ml of the purification buffer having an NaCl linear density slope of 0.1M to 0.6M. From the active fractions eluted, 3 ml of the fraction having the highest enzyme concentration was collected. This active fraction was passed through Sephacryl S-200 column and eluted with the purification buffer containing 0.1M NaCl. By gel filtration, the active fraction was collected. Finally 10 ml of purified enzyme (1.4 μg protein/ml) was obtained. This purified enzyme was analyzed by SDS-polyacrylamide electrophoresis but no impurity was detected. The enzyme is stably stored at -20° C. in the purification buffer containing 0.1M NaCl.

Km value determination [3] = substrate: Nc1nc2c(ncn2[C@@H]2O[C@H](CO)[C@@H](O)[C@H]2O)c(=O)[nH]1; assay: Km value determination; format: biochemical, Escherichia coli; details: other: 2 mM ATP, 10 mM MgSO4, 300 mM KCl, 0.1M HEPES buffer (pH 7.2)
Km value determination [4] = substrate: OC[C@H]1O[C@@H](n2cnc3c(O)ncnc32)[C@H](O)[C@@H]1O; assay: Km value determination; format: biochemical, Escherichia coli; details: other: 2 mM ATP, 10 mM MgSO4, 300 mM KCl, 0.1M HEPES buffer (pH 7.2)

B1: inosine-guanosine kinase (Escherichia coli K-12) (protein)
chain: MKFPGKRKSKHYFPVNARDPLLQQFQPENETSAAWVVGIDQTLVDIEAKVDDEFIERYGLSAGHSLVIEDDVAEALYQELKQKNLITHQFAGGTIGNTMHNYSVLADDRSVLLGVMCSNIEIGSYAYRYLCNTSSRTDLNYLQGVDGPIGRCFTLIGESGERTFAISPGHMNQLRAESIPEDVIAGASALVLTSYLVRCKPGEPMPEATMKAIEYAKKYNVPVVLTLGTKFVIAENPQWWQQFLKDHVSILAMNEDEAEALTGESDPLLASDKALDWVDLVLCTAGPIGLYMAGFTEDEAKRKTQHPLLPGAIAEFNQYEFSRAMRHKDCQNPLRVYSHIAPYMGGPEKIMNTNGAGDGALAALLHDITANSYHRSNVPNSSKHKFTWLTYSSLAQVCKYANRVSYQVLNQHSPRLTRGLPEREDSLEESYWDR
notes: made in house; host or cells: Escherichia coli
optimum pH [1]: 6.9-8.2
residual activity after pH treatment ([2]; 4° C., 16 hours, pH range of 6.6 to 9.0, with or without 250 mM KCl, versus intact standard enzyme): ≥ 90%
temperature up to which the enzyme is stable ([2]; 15 minutes treatment, pH 8): up to 40 °C
storage stability (in words) ([2]; -20° C. in purification buffer containing 0.1M NaCl): stably stored
inactivation by heat treatment ([2]; treatment at 40° C. or lower, 15 minutes, pH 8): ≤ 20%
activity after heat treatment (in words) ([2]; treatment at 50° C., 15 minutes): rapidly lost
Km (Km value determination [3]): 6.1 µM
Km (Km value determination [4]): 2100 µM
